Literature values in PMC3164694.

Assays:
TIMP-2 (Homo sapiens) = TIMP-2 (Homo sapiens) (UniProt P16035)
MMP-2 (Homo sapiens) = MMP-2 (Homo sapiens) (UniProt P08253)
Chain of MMP-2 (Homo sapiens) (P08253 110-660): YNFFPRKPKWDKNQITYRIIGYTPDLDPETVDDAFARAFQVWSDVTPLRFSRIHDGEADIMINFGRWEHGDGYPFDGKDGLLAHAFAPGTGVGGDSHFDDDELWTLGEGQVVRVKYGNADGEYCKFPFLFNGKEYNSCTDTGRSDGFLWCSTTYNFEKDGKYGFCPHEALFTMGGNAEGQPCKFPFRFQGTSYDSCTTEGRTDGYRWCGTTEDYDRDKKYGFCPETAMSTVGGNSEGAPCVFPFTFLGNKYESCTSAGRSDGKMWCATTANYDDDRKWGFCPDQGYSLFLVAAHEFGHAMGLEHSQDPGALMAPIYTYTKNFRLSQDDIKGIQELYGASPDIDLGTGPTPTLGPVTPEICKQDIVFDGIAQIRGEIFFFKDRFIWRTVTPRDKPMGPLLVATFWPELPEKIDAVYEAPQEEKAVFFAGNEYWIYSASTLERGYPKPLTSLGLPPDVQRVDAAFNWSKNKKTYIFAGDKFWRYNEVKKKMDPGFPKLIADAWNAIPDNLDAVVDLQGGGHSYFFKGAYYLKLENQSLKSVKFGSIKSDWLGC

Kd (TIMP-2 (Homo sapiens)) [nM]	Kd (MMP-2 (Homo sapiens)) [nM]	Substance
2.54	–	MT1-MMP (from UniProt P50281)
–	0.56	MT1-MMP/TIMP-2 complex (from UniProt P50281)
